Our source for the protein production values is a protein production outcome set (Wang et al. 2014).
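Further: failed if final PepcDB status was selected cloned or expressed and not failed if soluble or beyond.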

A short description of the series: label from the status in PepcDB records.
Regarding “MEIEFMTNVAVRRPNLNDVDELYLFFRIVITNTYKNEGLSQSLDDIENEINSKKQYLKSDFDSNGEGRYFLLAIDTSNDKIIGTIEIGPASTLINSCTGGVLKNLYEIGTVFILPEYQRKGIGSLLLHTMFLTLLSRGITEYCLDSGYKNAQSIWTKKFGKPSYVLKDYWGESSDHMIWKKSLHDTPIIFEL”, the protein production entry is listed as “failed”. In the case of “MEIFFTILIMTLVVSLSGVVTRVMPFQIPLPLMQIAIGALLAWPTFGLHVEFDPELFLVLFIPPLLFADGWKTPTREFLEHGREIFGLALALVVVTVVGIGFLIYWVVPGIPLIPAFALAAVLSPTDAVALSGIVGEGRIPKKIMGILQGEALMNDASGLVSLKFAVAVAMGTMIFTVGGATVEFMKVAIGGILAGFVVSWLYGRSLRFLSRWGGDEPATQIVLLFLLPFASYLIAEHIGVSGILAAVAAGMTITRSGVMRRAPLAMRLRANSTWAMLEFVFNGMVFLLLGLQLPGILETSLMAAEIDPNVEIWMLFTNIILIYAALMLVRFGWLWTMKKFSNRFLKKKPMEFGSWTTREILIASFAGVRGAITLAGVLSIPLLLPDGNVFPARYELVFLAAGVILFSLFVGVVMLPILLQHIEVADHSQQLKEERIARAATAEVAIVAIQKMEERLAADTEENIDNQLLTEVSSRVIGNLRRRADGRNDVESSVQEENLERRFRLAALRSERAELYHLRATREISNETLQKLLHDLDLLEALLIEENQ” it was “failed”; in that of “MEIHYAAKQDKCLVRPVIRDHTGSQSYRSTTSILTDHLRRNHHSHGAIASRDYLSYSWNSQLRRFSSEGDGNNASEDSRFPLNKDKMGKEKSTVGVEHFDSHAQLGVQDQIEWLNNEKRASESRKESPFLNKRERLKNEFLRRIQPWETIQLSWESFPYYVHEHTKDTLVECVSSHIKQKSMTSKYGARLDSSSGRILLQSVPGTELYRERLVRALARDTQVPLLVLDSSVLAPYDFADDYNEESESDDDIAESDQCTSQSEAEEETDGDNDDTSSSETKIEGTDDEERYLEISKEVLKKLGADIEDIEKRMSEQLYGSSEVSEAAAVDQDDKAKRPLKKGSQFVTCALCYLHQMMSV”, “failed”; in that of “MEIMEFEEAFKEVYEMVKPKYKLFTAGPVACFPEVLEIMKVQMFSHRSKEYRKVHMDTVERLREFLEVEKGEVLLVPSSGTGIMEASIRNGVSKGGKVLVTIIGAFGKRYKEVVESNGRKAVVLEYEPGKAVKPEDLDDALRKNPDVEAVTITYNETSTGVLNPLPELAKVAKEHDKLVFVDAVSAMGGADIKFDKWGLDVVFSSSQKAFGVPPGLAIGAFSERFLEIAEKMPERGWYFDIPLYVKYLKEKESTPSTPPMPQVFGINVALRIIEKMGGKEKWLEMYEKRAKMVREGVREIGLDILAEPGHESPTITAVLTPPGIKGDEVYEAMRKRGFELAKGYGSVKEKTFRIGHMGYMKFEDIQEMLDNLREVINELKKQKGIN”, “not failed”. The value for “MEISNRLKSISEVMDRCEIAADIGTDHAYLPIYLIKNNLCKRFIASDVNAGPLKKAINNINKYKLEDKIECRLGSGLNVLKLEEVDVVVIAGMGGNLIRDIIEERLDIFKKLKYAVLQPVQNPEILREYLIKRGFNIIEEQLCIDESKYYEIIKVCYDSKIEDKDDVYYEIGDKLIDMKHPLLKEYINYKIRKYDKIYKNISEESLNALSRKNELSIKIRKLKELLSCL” was “failed”; that for “MEITTLQIVLIFIVACVSGMGSILDEFQFHRPLVACTLIGAVLGDLKTGIIIGGTLEMIALGWMNIGAAVAPDAALASIISTILVIAGGQGIGAGIALAIPLAAAGQVLTIIVRTITVAFQHAADSAAERGNLTAISWIHVSALLLQAMRIAIPAVIVAVSVGTDTVHALLNSIPDVVTNGLNIAGGMIVVVGYAMVINMMRAGYLMPFFYLGFVTAAFTEFNLVALGVIGIVMAVLYIQLSPKYNKVQGQSVTSGNNGLDNELD” was “failed”; that for “MEKAPLLLETVEQAVRILQESPFVAIWNYKVLSVQAGAVALALPAQPQFYRPGGIIQGGCLMTLADTAFWLAAMTELGIDAPIVTLEMKTHFLRAAQADVYCRAEVMKSGRRVTYGTATITDAAGQTLSHHTLTYLAALEHHHHHH” was “failed”.

For the sequence “MEKENDENITKKLSLKKVLFNSLFVSLSILVLGFVINYKYAVGYIFILVIHELGHYIIAKFLKVSVAFGGFTPVGAYIIHENPKNCKENALIAMGGPLFGGLLGLIYYIVYYVTGNNTFLVLTFTSIILNLGNLIPVSPLDGGQIAEAISPTLCYIGFPVLIYLFILLNSLKSKILLLFIIVAGIYQTYYFTMKYKTDPYYKLDKPSKIKFIFIYSILVLSLTISAIYLYNSFDFKDIFHSIARFK”, the protein production entry was “failed”. On to “MEKFTVSKRHWLLLWGLQLGLAGGAAPVFSQAVLPYTPNLDQQQLEDQGLALTEDVVQLVRFQQYDLAFPRAKLATQLAPEQFQTWFILGTLYLQQEEVEPGITVLKKAEALAPEEAGIKFTLGNAYFQKGQYDQAVEVLLAGLAQRPDTPAALFDLGNAYLKLVKYPDAVTAYQKALKAEEQFWPALNNIGLIEYEQGKIDTALKRWQEVIKIDSEQPEPQLAIAVALYKQGKTEEGLRKAQDALNLDSRYGEIDFLVKNLWGEQLIADTKALFATPTMVEVLRTLPPPSDDL”, for which the protein production entry is listed as “failed”. Turning to “MEKIIVVKYRDVKLKSPILIGGLPGIGNVGKIAADYIVEKLNMVKIYDIFSEYLPPQVFINDDSEIHLVRNSIYYKKMRGKHDLLVLGGDFQGTTQEAQYELSYKMLELAKDMNVSEVYTLGGYSVGKIVERPRVLGAVTDKKLIPELEKNGVIFPKGEPGGGIVGSAGLILGLGMEIFKINGACLMGETSGYFADPKSAMEVLNVLQKQIGIKIDMSDIETRSKQIEQITGKMQEEFQNKQGKEDLGYFG”, the protein production entry was “failed”. In the case of “MEKKANHGDDVQESVPIIHSQVVKIKREFEKIQHPSLKQPEMPLVFREIMGPRRSRSPLGLGERERSIPVGN” it was “failed”; in that of “MEKKKVTIPQVCHGHSRPVVDLFYSPITPDGFFLISASKDSHPMLRNGETGDWIGTFEGHKGAVWSSCLDNNALRAASASADFSAKLWDALTGDVLHSFEHKHIVRACAFSEDTKSLLTGGFEKILRVFDMNRLDAPPTEVDKSPGSIRTLTWLHSDQTILSSCTDIGGVRLWDVRSGKIVQTLETKSPVTSAEVSQDGRYITTADGSTVKFWDANHFGLVKSYDMPCNIESASLEPKSGEKFVAGGEDMWVRVFDFYTGEEIGCNKGHHGPVHCVRFTPTGLSYASGSEDGTIRIWQTTPANPEENETSSRRVKHSVDEVSKKIEGFHINKEGKTAEKPSDT”, “failed”; in that of “MEKKLAPQFDNFYQSCRRYFQKLSRNKNFRSLKVYLLILTIVMVVIINPLSSNISGIVNILPTTTEKITHKSSAQQTDKQSHKTSNKAAYKTSWIGNTFGGKKWVQIQMEGIYVTPNGTVYVNSHWDEAGREVGIYKDGDVIGKADDLHGWGRLGGKAITANQKYLYVAMRQSHEGKPEDDYPPKGTTWYNVRRYDLSGKPAPFAGGRGWDKSMLIVNSKNDVTGLATKDKELYVSDPANDRLRVYNTDTMQELRSFSVPNPGAIAVDRQNNLWVVQKKKIVRYSPQGKQLAQQITDVANPSAIAFDPQGRLLVADNGKRQQVLIYNIANKPKQVGTLGDKGGIYGGTSGEVKDGKLYGITGVGTDKSGNIYVSNHGFNSTGADLRKFSSSGKLQWRLLGLQFIDNADADPDSDGRDVFTKNEHFVMDYSKNNGKEWTYKGYTLDKFRYPDDGRLHTTPTSAFVRRLGGKRLLYLSSEMMAERLLIYRFDGEIAVPCGIFGKNHLSWPPNQPKDGSWLWRDVNGDGSIQNNEYKTLGEEDGSVWGWEIDSKGDIWQAAEAGYIKHYPYQKLDNHGCPIYGQAVGGRIPMPAPFKTLTRIKYFPKQDVMYLGGYTNEHPNLDGDWGLVGTEIVRYDNWSKKRNLRWRIVLPYNHQTDPKLHIKSIDVAGDRVFAVASKKAEVYVYKATTGEALQMLTPGAEVGGESGWIDIPYGIRAFRRANGEYLVFVEENAKGKVLMYRLPG”, “failed”. The value for “MEKKLTVNVSDTERIASVLAGSYFMYRSLKRQPKNYAAIASAGLLLFRGVTGHCPGYSAAGKKTLPAPVHNIDIETSVIVNRPVDTVYSFWRRLENLPLFMTHLKSVKQKDHNKSDWEAYLPGGIGSIHWEAKIVKDKPGKVIAWSSLENSTIHNAGKVMFEDIGELGTVINVVISYQAPLGVAGEKVLALLTPTFEKMIRKDIVNFKQYIETGKLPTDKEYAENGKSQFE” was “failed”; that for “MEKLENFWTRDELNTFFDYVTPERDVEQFTMFRVLAYSGIRKGELLALTWKDINFEDNTLRVNKTLTQGLGGKLIVQPPKSRAGRRTIDLDDSTMRYLRQWKGVQRETFLGMGFNTNNVDQLVFASNRNHFRSMNTPTKWLNKAIKATGLKHISIHGFRHTHASLLYQSGVGLKETQQRLGHSRADSSVTLDVYTHTTEQQNVAALQRFENYVEAKLEHHHHHH” was “failed”.

With “MEKPDIQRLTNFLIVYTKTLLGAGTYTARVAKCVGRIAEVYGYEININFFFHHITLNVVDMDDNSIQRTYVIPNHHAHVNFKLIFDLSALSWAIYDHKYDLEKAKVVFEQISQQKKHSYLLNLLFVSMANSAFCRLFGGDFGAGNLVFFATFVGLLLRYILTKAKIDLRIQYILCSFISSWFVFFGLDMGYTNTSDVALGSSILYLIPGVFFINSVIDILKDHILMGLSRIISVAILICCIALGIYMTLSISDFGILR”, the protein production result is recorded as “failed”. The value for “MEKQKEVQKEYEEYQYMLDTETWKKELSQFKLSSSEKISKNPKVSIIIANYNNAPYLKKMMDSLVQQTIGIEQLQVMFIDDCSTDHSLKVIEPYLERYPNIEIYQLLENTGGAHGPRNVGIVNARGEYSVFLDADDWYDLNALKYLSDLLDDSHDDFAVSGLIQSTDGHLMLKSKPYYVDGSFKNRSIQELPAEFYGWLGPQAIMLRTSLIHNNNLHFVNQRVADDVLFFYEAMRFSKTITQGERLTTYLNRDADNESLSKSINRTFMLSWLRALSYINQQFPDDLSKERMLARRLEWLIYDFCIRRNTGYPFSKRRLQDFKVQMDQYLGELNFDPSPYFRSDVRQIIWTFLQTNDIDGLYWFIQCQSIRWVLVNRFGYVSKTERSYYYPRLLKRFPAVRMNAYAEATQREGNTLSLNVYTHQKITGFEIKELKNPFETRQRLAFKKISETSYQVELPEKFSNKESRFTIVFDNYLEIGVKDFSKFFALEHHHHHH” was “failed”. Consider “MEKREEAGEYHSKDFEWEFLKNIVENDPSLSHHLHHHHQNLSKYLPDSQPWQDFHSRHSSGKFFKERRYLLKEFPELVSCGENSKLLEIGCGNGSTVLPILRGSKNITVYACDCSSDALVRTKENIDRAISSVDNFHSFCCDFSTSEFPDWVACDRCRDKFMLNHSGGSESKHCIGGVDFVTLIFTLSAVPKERMPRAIKECFAVLKPGGLLLFRDYGLYDMTMLRFEPEKRVGFREYVRSDGTLSYFFCLDTARKLFTDAGFIEVELEYCCVKAVNRRKGKDMYRVWVHGKFQKPFSN”, for which the protein production entry is recorded as “failed”. Take “MEKRQFMKMKEKLKRACFEFAVSNRYLYNLAKRILDSSPKLQKIKEFLIPKEFLIPAANLSNVFEPETSFQNSGRFFKKIKTCFNGGLPPENLDQDLAIINQRWNVNNEGYQIFSHRKILGPFLVRGRRLVHGEVRRYVDPIFHLQREFNASVVRILNRTTEDLRVLSSKNDAIEGKLNTVEEKISGTVRKDEFKEFKDKIMINHDKLQTDFYELKNSLTKNLEELSSTVESIKAKIDTAEEKISGTDIHTSDYYFLFEEKFRGSRELVKARLRRYIPYFKGCRRVLDIGCGRGEFLELCKEEGIESIGVDINEDMIKFCEGKFNVVKSDAIEYLKSLPDKYLDGVMISHFVEHLDPERLFELLSLCYSKMKYSSYIVIESPNPTSLYSLINFYIDPTHKKPVHPETLKFILEYLGFRDVKIEFFEECEELTKLAKIDSNTVSEEVIRVINENIEKLNRILFGPQDYAIIAKK”: the protein production result was “failed”.

For “MEKSKKLPFEVDRRSVYKCVQCGTCRSVCPVFDVVGWESANTRGRMLIIKSLIEGRPPSEDVLSSLASCTTCGICAAKCPAGANPPEVVEAARAQLVKCGVTTDAQLEHHHHHH”, the protein production entry was “failed”.
